assay: yeast display, Sf9 membrane polyspecificity reagent, FACS + sequencing; frameworks hold sequencing errors
In short: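 After 36–48 hours of galactose induction, yeast (Saccharomyces cerevisiae BJ5465) displaying a synthetic nanobody library were stained at 4 °C for 1 hour with 10% biotinylated, detergent-solubilized Sf9 membrane reagent. Streptavidin microbeads enriched the stained cells before FACS sorting into low and high (top ~1%) gates on anti-HA and streptavidin fluorescence. Each clone's polyreactivity label reflects its gate of origin.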

Sequence | polyreactivity (PSR sort gate)
QVQLVESGGGLVQAGGSLRLSCAASGFIFRYNAMGWYRQAPGKERELVAVITSGDNTYYADSVKGRFTISRDNAKNTVYLQMNSLKPEDTAVYYCAARYRHYFVRGGYWGQGTQVTVSS | high polyreactivity
QVQLVESGGGLVQAGGSLRLSCAASGFIFRYYAMGWYRQAAGTERELVAAISGGGSSTYYADSVKGRFTISRDNAKNTVYLQMNSLKPEDTAVYYSTARYYYPAIKYDYCGQGTQVTVSS | low polyreactivity
QVQLVESGGGLVQAGGSLRLSCAASGFIFRYYAMGWYRQAPGKERELVAAINRGGGTNYADSVKGRFTISRDNAKNTVYLQMNSLKPEDTAVYYCAAVIRTVRERYGYWGQGTQVTVSS | high polyreactivity
QVQLVESGGGLVQAGGSLRLSCAASGFIFRYYAMGWYRQAPGKERELVAAINTGGTTYYADSVKGRFTISRDNAKNTVYLQMNSLKPEDTAVYYCATDGSPGYDWGQGTQVTVSS | high polyreactivity
QVQLVESGGGLVQAGGSLRLSCAASGFIFRYYAMGWYRQAPGKERELVAAISRTGGSTYYADSVKGRFTISRDNAKNTVYLQMNSLKPEDTAVYYCAADWWAWRAYYYWGQGTQVTVSS | high polyreactivity
QVQLVESGGGLVQAGGSLRLSCAASGFIFRYYAMGWYRQAPGKERELVAAISSGGGTTYADSVKGRFTISRDNAKNTVYLQMNSLKPEDTAVYYCAAVSYYARYTYGYDYWGQGTQVTVSS | high polyreactivity
QVQLVESGGGLVQAGGSLRLSCAASGFIFRYYAMGWYRQAPGKERELVAAISSSGGSTRYADSVKGRFTISRDNAKNTVYLQMNSLKPEDTAVYYCAARRWRGRYWGDYWGQGTQVTVSS | high polyreactivity
QVQLVESGGGLVQAGGSLRLSCAASGFIFRYYAMGWYRQAPGKERELVAAISWSGGSTYYADSVKGRFTISRDNAKNTVYLQMNSLKPEDTAVYYCAADRYAILFYAEDYWGQGTQVTVSS | low polyreactivity
QVQLVESGGGLVQAGGSLRLSCAASGFIFRYYAMGWYRQAPGKERELVAAITWSGGSTYYADSVKGRFTISRDNAKNTVYLQMNSLKPEDTAVYYCAADLYYFRYPGYDYWGQGTQVTVSS | high polyreactivity
QVQLVESGGGLVQAGGSLRLSCAASGFIFRYYAMGWYRQAPGKERELVASIVWSGGNTYYADSVKGRFTISRDNAKNTVYLQMNSLKPEDTAVYYCNRRGMDWGQGTQVTVSS | low polyreactivity
QVQLVESGGGLVQAGGSLRLSCAASGFIFSFYAMGWYRQAPGKERALVAAINWSGGSTYYADSVKGRFTISRDNAKNTVYIQMNSLKPEDTEVYYCNAVQYFSIPKPVWLFVLRYYYWGQGTQVTVSS | low polyreactivity
QVQLVESGGGLVQAGGSLRLSCAASGFIFSGNAMGWYRQAPGKERELVAAISTSGGRTYYADSVKGRFTISRDNAKNSDYLQMKSLKPEDTAVYYFNRAPWYRYTRDKYEYWGQGTQVTVSS | high polyreactivity
QVQLVESGGGLVQAGGSLRLSCAASGFIFSGNAMGWYRQAPGKERELVARIRSGDRTYYADSVKGRFTISRDNAKNTVYLQMNSLKPEDTAVYYCAAYAWYDWRSYFPILGYEYCGQGTQVTVSS | low polyreactivity
QVQLVESGGGLVQAGGSLRLSCAASGFIFSGNAMGWYRQAPGKERELVARIRSGDRTYYADSVKGRFTISRDNAKNTVYLQMNSLKPEDTAVYYCAAYAWYDWRSYFPILGYEYWGQGTQVTVSS | low polyreactivity
QVQLVESGGGLVQAGGSLRLSCAASGFIFSGYAMGWYRQAPGKERELVAAITSSGGNTYYADSVKGRFTISRDNAKNTVYLQMNSLKAEDTAVYYCARYSIFRWTRDEYWGQGTQVTVSS | high polyreactivity
QVQLVESGGGLVQAGGSLRLSCAASGFIFSGYVMGWYRQAPGKERELVAAITGSDGSTYYADSVKGRFTISRDNAKNTVYLQMNSLKPEDTAVYYCATTFQYYWFSLYDYWGQGTQVTVSS | low polyreactivity
QVQLVESGGGLVQAGGSLRLSCAASGFIFSKYAMGWYRQAPGKERELVAAISWSGGSTYYADSVKGRFTISRDNAKNTVYLQMNSLKPEDTAVYYCAADWYFELFRVYAEYDYWGQGTQVTVSS | low polyreactivity
QVQLVESGGGLVQAGGSLRLSCAASGFIFSKYTMGWSRQAPGKERELVASISWSGGSTYYADSVKGRFTISRDTAKNTVFLQMNSLKPEDTAVYYCAAEAWGWVFGGYYYWGQGTQVTVSS | low polyreactivity
QVQLVESGGGLVQAGGSLRLSCAASGFIFSNYAMGWYRQAPGKERELVAAISWSGGNTYYADSVKGRFTISRDNAKNTVYLQMNSLKPEDTAVYYCTRVKAYYRWFLPRYQYNYWGQGTQVTVSS | high polyreactivity
QVQLVESGGGLVQAGGSLRLSCAASGFIFSPYAMGWYRQAPGKERELVAAINGGGRTYYADSVKGRFTISRDNAKNTVYLQMNSLKPEDTAVYYCAVDPISQGHMDYWGQGTQVTVSS | low polyreactivity
QVQLVESGGGLVQAGGSLRLSCAASGFIFSPYAMGWYRQAPGKERELVAAISSGTRTNYADSVKGRFTISRDNAKNTVYLQMNSLKPEDTAVYYCAAKYRGTYDSRVYYWFYYWGQGTQVTVSS | high polyreactivity
QVQLVESGGGLVQAGGSLRLSCAASGFIFSPYAMGWYRQAPGKERELVATITWSGGRTYYADSVKGRFTISRDNAKNTVYLQMNSLKPEDTAVYYCNADGYQPALNKDFGYWGQGTQVTVSS | low polyreactivity

Sequence | polyreactivity (PSR sort gate)
QVQLVESGGGLVQAGGSLRLSCAASGFIFSQNAMGWYRQAPGKERELVAAITSGGGTNYADSVKGRFTISRDNAKNTVYLQMNSLKPEDTAVYYCAADDEKRYSYQTYFERDYWGQGTQVTVSS | low polyreactivity
QVQLVESGGGLVQAGGSLRLSCAASGFIFSQNVMGWYRQAPGKERELVAAISSSGGSTYYADSVKGRFTISRDNAKNTVYLQMNSLKREDTAVYYCAARPYVRFNYWGQGTQVTVSS | high polyreactivity
QVQLVESGGGLVQAGGSLRLSCAASGFIFSRNAMGWYRQAPGKERELVAAITRGGITYYADSVKGRFTISRDNAKNTVYLQMNSLKPEDTAVYYCAAYRTYQAYTGSHYYYWGQGTQVTVSS | high polyreactivity
QVQLVESGGGLVQAGGSLRLSCAASGFIFSRNAMGWYRQAPGKERELVATISKRGGSTYYADSVKGRFTISRDNAKNTVYLQMNSLKPEDTAVYYCAATGGILSTYDYWGQGTQVTVSS | high polyreactivity
QVQLVESGGGLVQAGGSLRLSCAASGFIFSRYAMGWYRQAPGKERELVAAIRFSGSITYYADSVKGRFTISRDNAKNTVYLQMNSLKPEDTAVYYCAAYRRYYGWYEYWGQGTQVTVSS | high polyreactivity
QVQLVESGGGLVQAGGSLRLSCAASGFIFSRYAMGWYRQAPGKERELVAAISIGGSTYYADSVKGRFTISRDNAKNTVYVQMNSLKPEDTAVYYCPVDYRHSSSWNAGPWEMYYWGQGTQVTVSS | low polyreactivity
QVQLVESGGGLVQAGGSLRLSCAASGFIFSRYAMGWYRQAPGKVRELVASISWGGGSTSYADSVKGRFTISRDNAKNTVYLQMNSLKPEDTAVYYCNARVRSHRFNYWGQGTQVTVSS | high polyreactivity
QVQLVESGGGLVQAGGSLRLSCAASGFIFSRYPMGWYRQAPGKERELVASISWRGGSTSYADSVKGRFTISRDNAKNTVYLQMNSLKPEDTAVYYCAASSRQVLEYDYWGQGTQVTVSS | high polyreactivity
QVQLVESGGGLVQAGGSLRLSCAASGFIFSRYSMGWYRQAPGKERELVAGITSRGGITYYADSVKGRFTISRDNAKNTVYLQMNSLIPEDTAVYYCNAGKSLSKSFDYWGQGTQVTVSS | high polyreactivity
QVQLVESGGGLVQAGGSLRLSCAASGFIFSRYVMGWYRQAPGKERELVAAISGSGGRTYYADSVKGRFTISRDKAKNTVYLQMNSLKPEDTAVYYCAARFLSPYHYYYWGQGTQVTVSS | high polyreactivity
QVQLVESGGGLVQAGGSLRLSCAASGFIFSSNAMGGYRQAPGKERELDATISFSGDSTYYADSVKGRFTISRDNEKNTVYLQMNSLKPEDTAVYYCARSTYYRWYKYGYYDYNYWGQGTQVTVSS | low polyreactivity
QVQLVESGGGLVQAGGSLRLSCAASGFIFSSNAMGWYRQAPGKERELVAGITASGVSTYYADSVKGRFTISRDNAKNTVYLQMNSLKPEDTAVYYCAALGLYYYFYSQYIDWDDYWGQGTQVTVSS | low polyreactivity
QVQLVESGGGLVQAGGSLRLSCAASGFIFSSNAMGWYRQAPGKERELVATISFSGESTYYADSVKGRFTISRDNAKNTVYLQMNSLKPEDTAVYYCARRTYYRWYKYGYYDYNYWRQGTQVTVSS | low polyreactivity
QVQLVESGGGLVQAGGSLRLSCAASGFIFSSYAMAWYRQAPGKERDLVAAISKSGDRTSYADSVKGRFTISRDNAKNTVYLQMNSLKPEDTAVYYCAKDRLYRTKKYRDMYYWGQGTQVSVSS | high polyreactivity
QVQLVESGGGLVQAGGSLRLSCAASGFIFSTYAMGWYRQAPGKERELVASIDWSGDSTYYADSVKGRFTISRDNAKNTVYLQMTSLKPEDTAVYEFAADDASYPYIFDSYDYWGQGTQVTVSS | low polyreactivity
QVQLVESGGGLVQAGGSLRLSCAASGFIFSVNAMGWYRQAPGKERELVADISCRGTSTNYADSVKGRFTISRDNAKNTVYLQMNSLKPEDTAVYYCAADGQLHMDYWGQGTQVTVSS | high polyreactivity
QVQLVESGGGLVQAGGSLRLSCAASGFIFSWYAMGWYRQAPGKERELVAAISYSGSNTYYADSVKGRFTISRDNAKNTVYLQMNSLKPEDTAVYYCAATLGSRWAIYDYWGQGTQVTVSS | high polyreactivity
QVQLVESGGGLVQAGGSLRLSCAASGFIFSWYAMGWYRQAPGKERELVATISSSGGRTHYADSVKGRFTISRDNAKNTVYLQMNSLKPEDTAVYYCAAQPFSYFTTVYYWGQGTQVTVSS | high polyreactivity
QVQLVESGGGLVQAGGSLRLSCAASGFIFSYCAKGRYRQAPGKERELVAAISRSGGRTYYADSVKGRYTISRDNAKNTVYLQMNSLKPEDTAVYYCAAPVSLRPIYDYWGQGTQVTVSS | high polyreactivity
QVQLVESGGGLVQAGGSLRLSCAASGFIFSYNAMGSYRQAPGKERELVAAISRRGGSTYYADSVKGRFTISRDNAKNTVYLQMNSLKPEDTAVYYCAAKSYLDSSGTFNYWGQGTQVTVSS | high polyreactivity
QVQLVESGGGLVQAGGSLRLSCAASGFIFSYYAMGWYRPAPGKERELVAAITDSGGSTYYADSVKGRFTISRDNAKNSVYLQMNSLKPEYTAVYYCATEIEQTAEYDYLGQGTQVTVSS | low polyreactivity
